B1: 10-40 (antibody, V domains shown)
VH: QLQLQESGPGLVKPSETLSLTCTVSGGSISSSNFYWGWIRQPPGKGLEWIASITYSGRTFYNPSLKSRVAISVDTSKNQFSLKLSSVTAADTAVYYCARTFPSYYDRSGYHYLNYGMDVWGQGTTVTVSS
VL: NFMLTQPHSMSESPGKTVTISCTRSSGSIASNYVQWYQQRPGSSPTTVIYEDNQRPSGVPDRFSGSIDSSSNSASLTISGLKTEDEADYYCQSYDSSSWVFGGGTKLTVL
B2: 11-11 (antibody, V domains shown)
VH: QVQLQESGPGLVKPSQTLSLTCTVSGGSISSGGYYWSWIRQHPGKGLEWIGYIYYSGSTYYNPSLKSRVTISVDTSKNQFSLKVSSVTAADTAVYYCASSNYYDGSGYNLLESYGMDVWGQGTSVTVSS
VL: QSVLTQPPSVSGAPGQRVTISCTGSSSNIGAGYDVHWYQQLPGTAPKLLIYGNSNRPSGVPDRFSGSRSGTSASLAITGLQAEDEADYYCQSYDSSLSGSWVFGGGTKVTVL
B3: 10-28 (antibody, V domains shown)
VH: QVQLVESGGGVVQPGRSLRLSCAASGFTFSSYDMHWVRQAPGKGLEWVAVISYDGSSKFYAESVKGRFTISRDNSKNTLYLQMNSLRAEETAVYYCVKDGEQLVPLFDYWGQGTLVTVSS
VL: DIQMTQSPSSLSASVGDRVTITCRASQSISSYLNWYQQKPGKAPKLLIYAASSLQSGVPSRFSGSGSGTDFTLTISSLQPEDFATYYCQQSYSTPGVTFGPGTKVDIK
B4: engineered monoclonal antibody 10-40 (antibody, V domains shown)
VH: B1 VH
VL: B1 VL
B5: engineered monoclonal antibody 11-11 (antibody, V domains shown)
VH: B2 VH
VL: B2 VL
B6: engineered monoclonal antibody 10-28 (antibody, V domains shown)
VH: B3 VH
VL: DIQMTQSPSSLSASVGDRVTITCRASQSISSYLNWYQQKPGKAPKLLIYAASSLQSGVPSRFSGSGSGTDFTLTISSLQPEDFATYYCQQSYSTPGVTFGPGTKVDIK

Usually Kd stands for a measure of binding affinity in units of concentration. Read a high Kd as lower affinity. By EC50 is commonly meant the concentration that produces a half-maximal response. A low value points to greater potency.

One assay concerns the target SARS-CoV-2 Spike. The experiment in a line: SPR. (Surface plasmon resonance follows binding to a sensor surface in real time, without labels.)
On to B1, for which binding was put at a Kd of 4.52 pM.

Turning to B2, the Kd was 1540 pM.

Regarding B3, binding was characterised by a dissociation constant (Kd) of 0.782 pM. This Kd is about 2000-fold lower than that of the molecule before.

The next assay has as its target BtKY72. The experiment in a line: ELISA. Background: An ELISA detects its analyte on a solid surface through an enzyme-linked reagent.
For B1, the EC50 worked out at 4 ng/mL.

B2 returned an EC50 of 7 ng/mL.

B3 yielded an EC50 of 4 ng/mL.

The next assay has as its target Rs4081. Description: ELISA.
In turn, B1 had an EC50 of 9 ng/mL.

As to B2, the EC50 was over 10000 ng/mL.

B3 came in with an EC50 of 7 ng/mL.

Another assay concerns the target Yunnan2011. The experiment in a line: ELISA.
Consider B1, for which a half-maximal effect (EC50) was put at 0.037 µg/mL.

Consider B2, for which the EC50 is over 10 µg/mL.

B3 displayed an EC50 of 0.009 µg/mL.

The next assay addresses BM-4831. The experiment in a line: ELISA.
As to B1, the EC50 came out at 3 ng/mL.

B2 displayed an EC50 of 1500 ng/mL. Against the preceding molecule, the EC50 is about 500-fold higher.

With B3, the EC50 was determined as 2 ng/mL.

A further assay addresses SHC014. Description: ELISA.
In turn, B1 displayed an EC50 of 5 ng/mL.

As to B2, the EC50 stood at 6 ng/mL.

In turn, B3 registered an EC50 of 2 ng/mL.

The target in the next assay is GX-Pangolin. The experiment in a line: ELISA.
Molecule B1 displayed an EC50 of 4 ng/mL.

The molecule B2 gave an EC50 of over 10000 ng/mL.

Molecule B3 displayed an EC50 of 4 ng/mL.

Another assay concerns the target SARS-CoV. The experiment in a line: ELISA.
For the molecule B1, the EC50 came to 8 ng/mL.

With B2, the EC50 was found to be 19 ng/mL.

For the molecule B3, the EC50 was found to be 5 ng/mL.

The target of the next assay is WIV1. The experiment in a line: ELISA.
On to B1, for which the midpoint of the response, the EC50, lay at 4 ng/mL.

As for B2, the EC50 worked out at 6 ng/mL.

B3 had a concentration for a half-maximal effect (EC50) of 3 ng/mL. This EC50 lies about 2-fold lower than the previous one.

Another assay concerns the target RmYN02. Description: ELISA.
In the case of B1, the EC50 worked out at 0.01 µg/mL.

B2 came in with an EC50 of over 10 µg/mL.

B3 displayed an EC50 of 0.006 µg/mL.

In another assay the target is RaTG13. The experiment in a line: ELISA.
The molecule B1 registered an EC50 of 3 ng/mL.

B2 came in with an EC50 of over 10000 ng/mL.

As for B3, the EC50 turned out to be 2 ng/mL.

The next assay addresses Rf1. Description: ELISA.
Consider B1, for which the response was half-maximal at 4 ng/mL (EC50).

In the case of B2, the concentration for a half-maximal effect (EC50) was over 10000 ng/mL.

Molecule B3 gave an EC50 of 4 ng/mL.

The next assay concerns the target SARS-COV spike trimer (SARS-CoV, UniProt P59594 14-1190). The experiment in a line: SPR.
For B4, the Kd came out at 2.21 pM.

For the molecule B5, the Kd was 4.51 pM.

Turning to B6, the Kd was found to be 3.69 pM.

The record behind these values is patent US20240343781A1 (published 2024).
